In paper doi:10.1101/296376 (bioRxiv, 2018):

Target: Miro1-ABC (aa 1-592), C-terminal 6xHis-tag (human, UniProt Q8IXI2 1-592)
Assay: pull-down

Sequence of Miro1-ABC (aa 1-592), C-terminal 6xHis-tag (Q8IXI2 1-592): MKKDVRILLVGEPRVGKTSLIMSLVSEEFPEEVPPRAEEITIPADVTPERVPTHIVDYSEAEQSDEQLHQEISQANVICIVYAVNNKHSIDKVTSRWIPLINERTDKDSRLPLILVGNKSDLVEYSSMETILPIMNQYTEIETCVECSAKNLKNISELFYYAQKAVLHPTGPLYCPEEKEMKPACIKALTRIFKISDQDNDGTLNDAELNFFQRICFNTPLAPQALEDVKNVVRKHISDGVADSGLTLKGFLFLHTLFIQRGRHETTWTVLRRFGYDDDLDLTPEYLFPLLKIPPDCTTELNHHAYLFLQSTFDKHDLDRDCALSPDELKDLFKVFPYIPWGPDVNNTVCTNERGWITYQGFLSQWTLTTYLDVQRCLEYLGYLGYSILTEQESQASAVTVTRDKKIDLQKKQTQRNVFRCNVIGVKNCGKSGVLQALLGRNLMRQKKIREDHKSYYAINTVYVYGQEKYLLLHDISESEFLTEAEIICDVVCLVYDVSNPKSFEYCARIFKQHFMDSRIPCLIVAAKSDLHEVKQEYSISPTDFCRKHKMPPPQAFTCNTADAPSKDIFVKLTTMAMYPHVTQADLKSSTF

B1: Myo19 C-tail (aa 898-970)-FLAG (domain or fragment)
chain: not shown
B1: binds.
